Laboratory results published in PMC9279424.
“And” between values parts separate entries of the source, which are not always exact repeats. Equal entries are not always repeated.

Assays:
[1] = biological target: Chlamy HAP2 (Chlamydomonas reinhardtii HAP2), purified monomer (Chlamydomonas reinhardtii); assay: negative-stain EM; Chlamy HAP2 at pH 7.5 with 0.1% β-DDM, 2 h, 23 °C, gel filtered; 2D class averages
[2] = biological target: Chlamy HAP2 (Chlamydomonas reinhardtii HAP2), purified monomer (Chlamydomonas reinhardtii); assay: negative-stain EM; Chlamy HAP2 at pH 7.5 with 0.1% β-DDM, 26 h, 23 °C, gel filtered; 2D class averages
[3] = biological target: Cyani HAP2 D1D2 (residues 28–457) (Cyanidioschyzon merolae); assay: negative-stain EM; Cyani HAP2 D1D2 at pH 1.5 in 0.1% β-DDM, 26 h, 37 °C; 2D class averages
[4] = biological target: Cyani HAP2 D1D2 (residues 28–457) (Cyanidioschyzon merolae); assay: negative-stain EM; Cyani HAP2 D1D2 at pH 5.0 in 0.1% β-DDM, 26 h, 37 °C; 2D class averages
[5] = biological target: Cyani HAP2 ectodomain (aa 28–564), from Drosophila S2 cells (Cyanidioschyzon merolae); assay: negative-stain EM; Cyani HAP2 incubated with β-DDM at pH 5.0, 37 °C, 2 h, gel filtered; 2D class averages
[6] = biological target: Cyani HAP2 ectodomain (aa 28–564), from Drosophila S2 cells (Cyanidioschyzon merolae); assay: negative-stain EM; Cyani HAP2 incubated with β-DDM at pH 5.0, 37 °C, 26 h, gel filtered; 2D class averages
[7] = biological target: Cyani HAP2 ectodomain (aa 28–564), from Drosophila S2 cells (Cyanidioschyzon merolae); assay: negative-stain EM; gel filtration peak of Cyani HAP2 treated with β-DDM at pH 2.0, 37 °C; 2D class averages
[8] = biological target: Cyani HAP2 ectodomain (aa 28–564), from Drosophila S2 cells (Cyanidioschyzon merolae); assay: SEC-MALS; Superdex 200 10/300 GL; Cyani HAP2 trimer formed at pH 1.5 with β-DDM; protein conjugate model (glycoprotein and β-DDM components)
[9] = biological target: Cyani HAP2 ectodomain (aa 28–564), from Drosophila S2 cells (Cyanidioschyzon merolae); assay: SEC; incubated with 0.1% β-DDM, 500 mM NaCl at pH 1.5, 2.0, 3.5, 4.3 or 5.0, 37 °C, 26 h; Superdex 200 in buffer of the same pH, 0.01% β-DDM; monomer to trimer
[10] = biological target: Cyani HAP2 ectodomain (residues 28–564) fusion loop mutant FL2 (L210A, L211A, F213A) (Cyanidioschyzon merolae); assay: SEC; WT and mutant ectodomains (16 μM) with nine volumes of citrate buffer pH 3.5, 500 mM NaCl, 0.1% DDM, 37 °C; running buffer pH 3.5 with 0.01% DDM
[11] = biological target: Cyani HAP2 ectodomain (residues 28–564) fusion loop mutant FL2 (L210A, L211A, F213A) (Cyanidioschyzon merolae); assay: SEC; WT and mutant ectodomains (16 μM) with nine volumes of citrate buffer pH 4.3, 500 mM NaCl, 0.1% DDM, 2 or 4 h at 37 °C; running buffer pH 4.3 with 0.01% DDM
[12] = biological target: Cyani HAP2 ectodomain (residues 28–564) fusion loop mutant FL3 (W147A, L148A) (Cyanidioschyzon merolae); assay: SEC; WT and mutant ectodomains (16 μM) with nine volumes of citrate buffer pH 3.5, 500 mM NaCl, 0.1% DDM, 37 °C; running buffer pH 3.5 with 0.01% DDM
[13] = biological target: Cyani HAP2 ectodomain (residues 28–564) fusion loop mutant FL3 (W147A, L148A) (Cyanidioschyzon merolae); assay: SEC; WT and mutant ectodomains (16 μM) with nine volumes of citrate buffer pH 4.3, 500 mM NaCl, 0.1% DDM, 2 or 4 h at 37 °C; running buffer pH 4.3 with 0.01% DDM
[14] = biological target: Cyani HAP2 ectodomain (residues 28–564), wild type, from Expi293F cells (Cyanidioschyzon merolae); assay: SEC; WT and mutant ectodomains (16 μM) with nine volumes of citrate buffer pH 3.5, 500 mM NaCl, 0.1% DDM, 37 °C; running buffer pH 3.5 with 0.01% DDM
[15] = biological target: Cyani HAP2 ectodomain (residues 28–564), wild type, from Expi293F cells (Cyanidioschyzon merolae); assay: SEC; WT and mutant ectodomains (16 μM) with nine volumes of citrate buffer pH 4.3, 500 mM NaCl, 0.1% DDM, 2 or 4 h at 37 °C; running buffer pH 4.3 with 0.01% DDM
[16] = biological target: Cyani HAP2 ectodomain (residues 28–564), wild type, from Expi293F cells (Cyanidioschyzon merolae); assay: SEC; WT and mutant ectodomains (16 μM) with nine volumes of citrate buffer pH 4.7, 500 mM NaCl, 0.1% DDM; gel filtered immediately or after 2 h at 37 °C in pH 4.7 buffer with 0.01% DDM

For “Chlamy HAP2 (Chlamydomonas reinhardtii HAP2), purified monomer (domain or fragment)”, the stoichiometry N [1] was 2 and 3 and the stoichiometry N [2] was 3 and 6.
In the case of “Cyani HAP2 D1D2 (residues 28–457) (domain or fragment)”, the stoichiometry N [3] is reported as 3 and the stoichiometry N [4] is reported as 3 and 2.
For “Cyani HAP2 ectodomain (aa 28–564), from Drosophila S2 cells (domain or fragment)”, the stoichiometry N [5] was 2 and 3, the stoichiometry N [6] was 3 and 6 and the stoichiometry N [7] was 3 and 6. It also gave a stoichiometry N [8] of 3 and a stoichiometry N [9] of 3.
Work on “Cyani HAP2 ectodomain (residues 28–564) fusion loop mutant FL2 (L210A, L211A, F213A) (domain or fragment)” yielded a stoichiometry N [10] of 3 and a stoichiometry N [11] of 3.
For “Cyani HAP2 ectodomain (residues 28–564) fusion loop mutant FL3 (W147A, L148A) (domain or fragment)”, the stoichiometry N [12] was 3 and the stoichiometry N [13] was 3.
“Cyani HAP2 ectodomain (residues 28–564), wild type, from Expi293F cells (domain or fragment)” was tested, and the stoichiometry N [14] was 3, the stoichiometry N [15] was 3 and the stoichiometry N [16] was 3.
